Assay results from US20040132641A1 (University of Pennsylvania, published 2004).
Positions of bridges follow the written chain, without caps; N, C: chain ends. No end group written: not given here.

Key:
[1] = molecular target: T1, Flag-tagged soluble human Fas ligand (FasL-Flag) (human, UniProt P48023 103-281, limits assumed); experiment: solid phase ligand binding assay; peptide preincubated with FasL-Flag, inhibition of binding to immobilised Fas-Fc
T1 construct: Bought from Kamiya Biomedical; also called soluble FasL-Flag fusion protein; not shown: Flag tag
T1 sequence (looked up): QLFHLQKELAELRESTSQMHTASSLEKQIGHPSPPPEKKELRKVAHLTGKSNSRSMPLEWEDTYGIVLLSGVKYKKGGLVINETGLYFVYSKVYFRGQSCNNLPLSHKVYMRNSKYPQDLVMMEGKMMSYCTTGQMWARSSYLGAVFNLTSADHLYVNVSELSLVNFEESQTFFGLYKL
Procedure: To compare the inhibitory activities of the Kp7 peptide series, dose-response studies were performed. The best activity was found with Kp7-6, which inhibited 50% of the FasL-Flag molecule binding to immobilized Fas-Fc at 150 μM (FIG. 2B).
Solid phase ligand binding assay. Fas-Fc fusion protein (250 ng/ml) diluted in PBS was immobilized onto 96 well ELISA plate (Costar, High Wycombe, UK) by incubating overnight at 4° C. After blocking with PBS containing 1% skim milk overnight at 4° C. and subsequent washing with PBS containing 0.05% Tween 20 (PBS-Tw), Flag-tagged soluble FasL (100 ng/ml)/peptide solution preincubated in PBS containing 1% skim milk for 1 h at 37° C. was added onto the Fas-Fc coated wells. After 2 h incubation at room temperature, the plate was washed with PBS-Tw, and anti-FLAG(M2)-HRP antibody 1:2500 in PBS containing 1% skim milk was added. After 1 h incubation at room temperature, the plate was washed with PBS-Tw, and the enzyme reaction was started by adding the substrate solution (0.1M sodium acetate buffer (pH 5.0) containing 100 μg/ml of TMBZ and 0.005% (v/v) H₂O₂) and stopped with 2N H₂SO₄. The absorbance at 450 nm was measured with an ELISA reader.

[2] = molecular target: T1, Flag-tagged soluble human Fas ligand …; experiment: SPR (BIAcore), FasL-Flag immobilised, Kp7-6 in solution; ratio of rate constants
Procedure: (§1) The kinetics of binding of Kp7-6, which mediated the best inhibitory activity to FasL, was performed using surface plasmon resonance (BIAcore™) analysis. FasL-Flag was immobilized onto a sensor chip and various solutions containing different concentrations of Kp7-6 were passed over the surface. […] The koff value is considered as an important indicator in the development of therapeutics with biological activity (Benveniste, M. et al. Br J Pharmacol 104, 207-221 (1991); Yiallouros, I. et al. Biochem J 331, 375-379 (1998)), and generally correlates with potent biological effects. (Moosmayer, D. et al. J Interferon Cytokine Res 16, 471-477 (1996)). […] (Berezov, A. et al. J Med Chem 44, 2565-2574 (2001)).
(§2) Biosensor analysis. All experiments were carried out on a BIAcore 3000 instrument (Biacore A G, Uppsala, Sweden) at 25° C. using PBS, pH 7.4, containing 0.005% surfactant P20 (Biacore A G) as the running buffer. FasL-Flag, Fas-Fc or TNFRI-Fc was immobilized on research-grade CM5 sensor chips (Biacore AG) using standard N-ethyl-N-dimethylaminopropyl carbodiimid/N-hydroxysuccinimide coupling. Immobilization was performed in 10 mM sodium acetate buffer at pH 4.5 for FasL-Flag and Fas-Fc, and at pH 4.0 for TNFRI-Fc. After coupling, excess N-hydroxysuccinimide groups were inactivated with ethanolamine. […] Data were analyzed with the BIA evaluation 3.0 software (Biacore AG). […]

[3] = molecular target: T1, Flag-tagged soluble human Fas ligand …; experiment: SPR (BIAcore), FasL-Flag immobilised, Kp7-6 in solution
Procedure: as §1, §2

[4] = molecular target: T2, human Fas extra cellular domain-IgGFc fusion protein (Fas-Fc) (human, UniProt P25445 26-173); experiment: SPR (BIAcore 3000), Fas-Fc immobilised, Kp7-6 in flow
T2 construct: extracellular domain; Bought from Kamiya Biomedical; also called soluble Fas receptor; not shown: IgG Fc
T2 sequence (looked up): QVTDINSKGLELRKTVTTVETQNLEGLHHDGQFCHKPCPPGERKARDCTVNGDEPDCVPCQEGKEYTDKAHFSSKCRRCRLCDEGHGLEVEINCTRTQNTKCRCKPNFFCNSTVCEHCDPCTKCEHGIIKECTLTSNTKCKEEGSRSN
Procedure: (§3) To assess the specificity of Kp7-6 binding interaction, Fas, FasL and TNFα were immobilized on a sensor chip. Kp7-6 bound to FasL but not to TNFα, which indicates Kp7-6 bound to FasL specifically (FIG. 3B). Kp7-6 also bound to Fas (FIG. 3B). […] (Naismith, J. H. et al. Structure 4, 1251-1262 (1996)). […] No significant binding to TNF-R was detected.
(§4) Biosensor analysis. All experiments were carried out on a BIAcore 3000 instrument (Biacore A G, Uppsala, Sweden) at 25° C. using PBS, pH 7.4, containing 0.005% surfactant P20 (Biacore A G) as the running buffer. FasL-Flag, Fas-Fc or TNFRI-Fc was immobilized on research-grade CM5 sensor chips (Biacore AG) using standard N-ethyl-N-dimethylaminopropyl carbodiimid/N-hydroxysuccinimide coupling. Immobilization was performed in 10 mM sodium acetate buffer at pH 4.5 for FasL-Flag and Fas-Fc, and at pH 4.0 for TNFRI-Fc. After coupling, excess N-hydroxysuccinimide groups were inactivated with ethanolamine. For binding studies, about 1500 resonance units (RU) of FasL-Flag, Fas-Fc and TNFRI-Fc were coupled to the chips. Surface plasmon resonance (SPR) measurements were carried out at a flow rate of […]. Data were analyzed with the BIA evaluation 3.0 software (Biacore AG). The sensograms give values for the relative response in resonance units (RU) after background subtraction versus time in seconds. […]

Human recombinant TNFα = molecular target: T3, Human recombinant TNFα (human, UniProt P01375 77-233); experiment: SPR (BIAcore 3000), TNFα immobilised, Kp7-6 in flow; peptide concentration not given
T3 construct: Bought from Roche Diagnostics

[5] = molecular target: T4, Human recombinant TNF-receptor (I) extracellular domain-IgGFc fusion protein (TNFRI-Fc) (human, UniProt P19438 30-211); experiment: SPR (BIAcore), target immobilised on sensor chip
T4 construct: extracellular domain; not shown: IgG Fc
T4 sequence (looked up): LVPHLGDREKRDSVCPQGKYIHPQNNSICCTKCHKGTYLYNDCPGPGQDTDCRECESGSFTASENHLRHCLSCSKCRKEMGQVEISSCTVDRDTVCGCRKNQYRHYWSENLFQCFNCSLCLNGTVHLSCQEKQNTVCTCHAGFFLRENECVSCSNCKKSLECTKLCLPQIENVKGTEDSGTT
Procedure: as §3, §4

T3 sequence (P01375 77-233 limits assumed): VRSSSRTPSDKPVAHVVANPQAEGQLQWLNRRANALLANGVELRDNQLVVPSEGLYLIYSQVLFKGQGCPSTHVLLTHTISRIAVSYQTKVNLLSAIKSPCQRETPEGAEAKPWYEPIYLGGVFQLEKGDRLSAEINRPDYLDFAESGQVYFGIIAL

B1: Kp7-6 (peptide)
peptide: YCDEHFCY
modifications: disulfide 2-7
notes: Synthetic exocyclic peptide derived from the Kp7 loop of human Fas (91 CDEGHGL 97); also called Fas mimetic Kp7-6; exocyclic mimetic Kp7-6
IC50 [1]: 150 µM | Kd [2]: 11.2 µM | koff [3]: 0.000765 s⁻¹ | binding result [4]: binds | binding result (Human recombinant TNFα): no binding | binding result [5]: no binding
